According to IntAct's records for PubMed 19740107:

B1: Amphiregulin (Homo sapiens), P15514 (parent)
chain: MRAPLLPPAPVVLSLLILGSGHYAAGLDLNDTYSGKREPFSGDHSADGFEVTSRSEMSSGSEISPVSEMPSSSEPSSGADYDYSEEYDNEPQIPGYIVDDSVRVEQVVKPPQNKTESENTSDKPKRKKKGGKNGKNRRNRKKKNPCNAEFQNFCIHGECKYIEHLEAVTCKCQQEYFGERCGEKSMKTHSMIDSSLSKIALAAIAAFMSAVILTAVAVITVQLRRQYVRKYEGEAEERKKLRQENGNVHAIA

Variants of: B1
Conditions: with S100A4, P26447
Chain of S100A4, P26447 (P26447 whole entry, looked up): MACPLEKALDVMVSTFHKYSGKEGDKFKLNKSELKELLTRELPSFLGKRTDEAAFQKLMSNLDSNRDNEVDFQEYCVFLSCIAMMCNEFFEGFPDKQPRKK

Q: MRAPLLPPAPVVLSLLILGSGHYAAGLDLNDTYSGKREPFSGDHSADGFEVTSRSEMSSGSEISPVSEMPSSSEPSSGADYDYSEEYDNEPQIPGYIVDDSVRVEQVVKPPQNKTESENTSDKPKRKKKGGKNGKNRRNRKKKNPCNAEFQNLCIHGECKYIEHLEAVTCKCQQEYFGERCGEKSMKTHSMIDSSLSKIALAAIAAFMSAVILTAVAVITVQLRRQYVRKYEGEAEERKKLRQENGNVHAIA [F153L] was tested. Which “effect of a mutation on the interaction” value did it give?
A: decreasing interaction

Q: MRAPLLPPAPVVLSLLILGSGHYAAGLDLNDTYSGKREPFSGDHSADGFEVTSRSEMSSGSEISPVSEMPSSSEPSSGADYDYSEEYDNEPQIPGYIVDDSVRVEQVVKPPQNKTESENTSDKPKRKKKGGKNGKNRRNRKKKNPCNAEFQNFAIHGECKYIEHLEAVTCKCQQEYFGERCGEKSMKTHSMIDSSLSKIALAAIAAFMSAVILTAVAVITVQLRRQYVRKYEGEAEERKKLRQENGNVHAIA [C154A] was tested. Which “effect of a mutation on the interaction” value did it give?
A: decreasing interaction

Variants of: B1
Conditions: with S100A4, P26447
Remark: another data set of the same source

Q: How did the “effect of a mutation on the interaction” value turn out when MRAPLLPPAPVVLSLLILGSGHYAAGLDLNDTYSGKREPFSGDHSADGFEVTSRSEMSSGSEISPVSEMPSSSEPSSGADYDYSEEYDNEPQIPGYIVDDSVRVEQVVKPPQNKTESENTSDKPKRKKKGGKNGKNRRNRKKKNPCNAEFQNFCIHGECKYIEHLEAVTCACQQEYFGERCGEKSMKTHSMIDSSLSKIALAAIAAFMSAVILTAVAVITVQLRRQYVRKYEGEAEERKKLRQENGNVHAIA [K171A] was run?
A: decreasing interaction

Q: With MRAPLLPPAPVVLSLLILGSGHYAAGLDLNDTYSGKREPFSGDHSADGFEVTSRSEMSSGSEISPVSEMPSSSEPSSGADYDYSEEYDNEPQIPGYIVDDSVRVEQVVKPPQNKTESENTSDKPKRKKKGGKNGKNRRNRKKKNPCNAEFQNFCIHGECKYIEHLEAVTAKCQQEYFGERCGEKSMKTHSMIDSSLSKIALAAIAAFMSAVILTAVAVITVQLRRQYVRKYEGEAEERKKLRQENGNVHAIA [C170A] as the variant, how does the “effect of a mutation on the interaction” value read?
A: decreasing interaction

Q: How did the “effect of a mutation on the interaction” value turn out when MRAPLLPPAPVVLSLLILGSGHYAAGLDLNDTYSGKREPFSGDHSADGFEVTSRSEMSSGSEISPVSEMPSSSEPSSGADYDYSEEYDNEPQIPGYIVDDSVRVEQVVKPPQNKTESENTSDKPKRKKKGGKNGKNRRNRKKKNPCNAEFQNFCIHGECKYIEHLEAVTCKLQQEYFGERCGEKSMKTHSMIDSSLSKIALAAIAAFMSAVILTAVAVITVQLRRQYVRKYEGEAEERKKLRQENGNVHAIA [C172L] was run?
A: decreasing interaction
